Data set [1] deals with the molecule itself. In words: X-ray crystal structure of the homodimer.
Data set [2] concerns the molecule itself. In words: X-ray crystal structure of the homotrimer.
Data set [3] concerns the molecule itself. In words: SEC-MALS and SAXS of the original construct. (In general: SEC sorts molecules by how far they enter the pores of the column.)

B1: ank3C2_1 (designed binder)
chain: SELGKRLIEAAENGNKDRVKDLLENGADVNASDSDGKTPLHLAAENGHAKVVLLLLEQGADPNAKDSDGKTPLHLAAENGHAVVVALLLMHGADPNAKDSDGKTPLHLAAENGHEEVVILLLAMGADPNTSDSDGRTPLDLAREHGNEEVVKVLEDH
notes: One subunit of a designed homodimer (C2) built from an idealized ankyrin repeat protein; It was expressed in E. coli with an N- or C-terminal (His)6 tag
For B1, the binding result in data set [1] is recorded as “binds”.

B2: HR00C3_2 (designed binder)
chain: IEEVVAEMIDILAESSKKSIEELARAADNKTTEKAVAEAIEEIARLATAAIQLIEALAKNLASEEFMARAISAIAELAKKAIEAIYRLADNHTTDTFMARAIAAIANLAVTAILAIAALASNHTTEEFMARAISAIAELAKKAIEAIYRLADNHTTDKFMAAAIEAIALLATLAILAIALLASNHTTEEFMAKAISAIAELAKKAIEAIYRLADNHTSPTYIEKAIEAIEKIARKAIKAIEMLAKNITTEEYKEKAKSAIDEIREKAKEAIKRLEDNRT
notes: One subunit of a designed homotrimer (C3) built from a de novo designed repeat protein
Regarding B2, in data set [2], the binding result is “binds”.

B3: ank1C2_1 (designed binder)
chain: SELGKRLIEAAENGNKDRVKDLIENGADVNASDSDGRTPLHHAAENGHAEVVALLIEKGADVNAKDSDGRTPLHHAAENGHDEVVLILLLKGADVNAKDSDGRTPLHHAAENGHKRVVLVLILAGADVNTSDSDGRTPLDLAREHGNEEVVKALEKQ
notes: One subunit of a designed homodimer (C2) built from an idealized ankyrin repeat protein; also called ank1C2_G3; ANK1C2-G3
Take B3: in data set [1], the binding result is reported as “binds”.

B4: 1na0C3_3 (designed binder)
chain: NLAEKMYKAGNAMYRKGQYTIAIIAYTLALLKDPNNAEAWYNLGNAAYKKGEYDEAIEAYQKALELDPNNAEAWYNLGNAYYKQGDYDEAIEYYQKALELDPNNAEAKQNLGNAKQKQG
notes: One subunit of a designed homotrimer (C3) built from a consensus designed tpr protein
B4: the binding result in data set [2] is recorded as “binds”.

B5: HR04C4_1 (designed binder)
chain: DECEEKARRVAEKVERLKRSGTSEDEIAEEVAREISEVIRTLKESGSSYEVICECVARIVAEIVEALKRSGTSAVEIAKIVARVISEVIRTLKESGSSYEVICECVARIVAEIVEALKRSGTSAAIIALIVALVISEVIRTLKESGSSFEVILECVIRIVLEIIEALKRSGTSEQDVMLIVMAVLLVVLATLQLSGS
notes: One subunit of a designed homotetramer (C4); also called tj10C4_G1
In the case of B5, the binding result in data set [3] was “binds”.

These data come from patent US20180137234A1 (University of Washington, published 2018).
